Results published in article PMC314469, “Protein Interaction Networks by Proteome Peptide Scanning” (PLoS Biology, 2004).

T1: Myo5 SH3 (MYO5_YEAST), Q04439
T1 chain: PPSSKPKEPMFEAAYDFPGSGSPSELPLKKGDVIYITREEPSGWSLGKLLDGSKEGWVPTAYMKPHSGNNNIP


Target: T1, Myo5 SH3 (MYO5_YEAST), Q04439
Experiment: SPOT array

| normalised SPOT signal, Boehringer light units (BLU); mean over the file's lines of this peptide | Binder |
| --- | --- |
| 196 | ALYHLSNPNVPKLW [YBR112C 140-153] |
| 152 | DFIKLMNPTLPSLK [YNL118C 54-67] |
| 190 | DFVTLHVPATPETE [YER081W 252-265] |
| 169 | ALNNWILPSTPHIQ [YHR197W 533-546] |
| 236 | AELMLRIPYLPGQN [YDL108W 196-209] |
| 220 | DLIHLDSPQQPNGY [YPL020C 565-578] |
| 83.1 | APLLYSSPSEPMAY [YMR055C 139-152] |
| 91.9 | DLLGLSTPQSPTNS [YHR108W 433-446] |
| 186 | DLSVHTSPHGPIGS [YGR068C 274-287] |
| 10800 | APPALSAPSIPPVP [YJL020C 739-752] |
| 98.8 | DPSLYQIPEPPRGG [YOR307C 21-34] |
| 30.3 | ALKSLSNPSSPWQQ [YDR283C 993-1006] |
| 44.9 | ELFTFDMPTDPSSF [YCR091W 173-186] |
| 36.7 | AELFLGIPIFPGAS [YJL141C 561-574] |
| 114 | EFSPHSTPVTPRRL [YGL003C 167-180] |
| 6580 | APPALSAPSVPPVP [YJL020C 718-731] |
| 212 | DFNKFERPNIPVEE [YPL242C 282-295] |
| 208 | EARPYSEPSEPEDS [YER162C 705-718] |
| 249 | EFDMLLLPFIPSID [YHR109W 353-366] |
| 128 | EEMGMEEPQAPEAF [YPL176C 44-57] |

| normalised SPOT signal, Boehringer light units (BLU); mean over the file's lines of this peptide | Binder |
| --- | --- |
| 126 | DLKEFNGPEPPIKR [YNL286W 144-157] |
| 161 | DLSYYLRPIKPFNT [Q0115 378-391] |
| 83.5 | AEVYYGPPTDPRKQ [YDR001C 32-45] |
| 130 | EAIKLGVPKGPLFA [YKR079C 211-224] |
| 77.7 | DFRLHYYPKDPSNV [YER172C 104-117] |
| 229 | ALGIFFAPESPWWL [YDL247W 284-297] |
| 101 | ALGFYRAPGSPAPA [YMR069W 242-255] |
| 141 | EAFKLPKPWSPNSH [YHR036W 272-285] |
| 75.1 | EADGLVQPVVPDKV [YER036C 364-377] |
| 160 | DPNAYMQPQVPVQM [YIL109C 92-105] |
| 16 | DELLLMSPELPADL [YHR186C 271-284] |
| 7750 | APAPPPPPQMPAT [YOR181W 519-531] |
| 0 | EAHQHHQPPEPQPY [YDR432W 85-98] |
| 261 | ALKEMTHPIKPSAQ [YLR239C 27-40] |
| 193 | AFHELGIPVIPNPS [YDR232W 404-417] |
| 255 | ELEDFAFPDTPTIV [YBR221C 343-356] |
| 139 | DLMALKYPYFPTKM [YNL059C 225-238] |
| 131 | ALDYLIPPPMPKNQ [YOL135C 61-74] |
| 81.6 | EETEMLAPKLPEEN [YNR028W 128-141] |
| 108 | DFSSYGPPGTPGYD [YLR342W 92-105] |

| normalised SPOT signal, Boehringer light units (BLU); mean over the file's lines of this peptide | Binder |
| --- | --- |
| 1960 | AFHFWRPPIAPAEM [YDR230W 49-62] |
| 125 | EAYRLNYPELPRLT [YLR073C 184-197] |
| 173 | DFPLYKSPAFPSSS [YPR039W 19-32] |
| 216 | AELFLRRPIFPGRD [YBL016W 214-227] |
| 181 | ALDNFTLPGTPGFP [YLR370C 101-114] |
| 166 | AEFDLTDPEVPSFY [YDR362C 446-459] |
| 57.4 | ELLSFLSPGKPSKG [YML005W 159-172] |
| 179 | DARPFLQPVDPVKL [YLR399C 169-182] |
| 126 | DARPFLKPVDPIAL [YDL070W 154-167] |
| 10400 | APKYYVPPGIPTND [YJL020C 199-212] |
| 166 | DPNQLSTPPTPKSA [YGR070W 171-184] |
| 49.8 | EAGDFEQPKGPAGA [YPL127C 99-112] |
| 181 | DEFTLDLPRIPSLE [YBR123C 27-40] |
| 166 | ALRKFGYPFSPNDP [YPR097W 38-51] |
| 1010 | APKKWKAPKGPKPT [YGL099W 6-19] |
| 189 | ELAEFTDPSSPVSE [YNL278W 118-131] |
| 117 | APQPHLLPWLPPTD [YDL019C 1187-1200] |
| 172 | AELLLGQPMFPGES [YMR139W 231-244] |
